The source of these data is publication PMC5909435.

The data set has as its target T1, TFAM K4Q4 (acetyl-lysine mimic) (Homo sapiens, UniProt Q00059 43-246, K62Q;K76Q;K111Q;K118Q).
T1 sequence: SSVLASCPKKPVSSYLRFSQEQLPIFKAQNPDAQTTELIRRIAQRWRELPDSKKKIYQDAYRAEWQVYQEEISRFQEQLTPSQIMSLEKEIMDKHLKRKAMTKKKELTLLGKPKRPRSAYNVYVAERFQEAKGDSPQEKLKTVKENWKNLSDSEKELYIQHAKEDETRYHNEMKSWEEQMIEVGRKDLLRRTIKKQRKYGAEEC
Description: MST.

B1: non-specific 18 bp duplex with 13 nt overhang (mixed)
DNA 1: GTCACTGTTCGAGCACCA
DNA 2: CCATAGATAGCATTGGTGCTCGAACAGTGAC
As a reminder, the Kd is the equilibrium constant for the complex coming apart. A lower Kd goes with a tighter complex. In turn, B1 showed a dissociation constant (Kd) of 131 ± 17 nM.
